In US10208288B2, “Differentiation of human embryonic stem cells into pancreatic endocrine cells” (Janssen Biotech, Inc., priority 2012, dated 2019):

Tested on: cells of the human embryonic stem cell line H1 differentiated to stage 5
Experiment: Immunostaining for insulin protein expression at the end of Stage 5
Format: cell-based
Settings: 50 or 100 ng/ml for three days at stage 5, immunostaining vs control; FIG. 2, FIG. 3
Experimental: Cells of the human embryonic stem cell line H1 (hESC H1, passage 40) were seeded as single cells at 1×10^5 cells/cm^2 on MATRIGEL™ (1:30 dilution; BD Biosciences, NJ)-coated dishes in mTeSR®1 media supplemented with 10 μM of Y27632. Forty-eight hours post seeding, cultures were washed in incomplete PBS (phosphate buffered saline without Mg or Ca). Cultures were differentiated into pancreatic endoderm/endocrine lineages as follows: • a) Stage 1 (Definitive Endoderm (DE)—3 days): Cells were cultured for one day in stage 1 media (see Example 1, above). Cells were then cultured for an additional day in MCDB-131 medium supplemented with 0.1% fatty acid-free BSA, 0.0012 g/ml sodium bicarbonate, 1× GlutaMax™, 4.5 mM D-Glucose, 100 ng/ml GDF8, and 0.1 μM MCX compound. […]

B1: Ephrin-A3: Ephrin ligand protein from R & D systems (protein, UniProt P52797 23-214, looked up)
Ephrin-A3: QGPGGALGNRHAVYWNSSNQHLRREGYTVQVNVNDYLDIYCPHYNSSGVGPGAGPGPGGGAEQYVLYMVSRNGYRTCNASQGFKRWECNRPHAPHSPIKFSEKFQRYSAFSLGYEFHAGHEYYYISTPTHNLHWKCLRMKVFVCCASTSHSGEKPVPTLPQFTMGPNVKINVLEDFEGENPQVPKLEKSISG
  protein expression of insulin: significantly enhanced
